We go through 8 molecules from patent US20220204643A1 (published 2022).

Experiment [1] concerns the target T1, kelch like family member 40 (human, UniProt Q2TBA0 1-621).
T1 construct: on protein array; also called KLHL40
T1 sequence: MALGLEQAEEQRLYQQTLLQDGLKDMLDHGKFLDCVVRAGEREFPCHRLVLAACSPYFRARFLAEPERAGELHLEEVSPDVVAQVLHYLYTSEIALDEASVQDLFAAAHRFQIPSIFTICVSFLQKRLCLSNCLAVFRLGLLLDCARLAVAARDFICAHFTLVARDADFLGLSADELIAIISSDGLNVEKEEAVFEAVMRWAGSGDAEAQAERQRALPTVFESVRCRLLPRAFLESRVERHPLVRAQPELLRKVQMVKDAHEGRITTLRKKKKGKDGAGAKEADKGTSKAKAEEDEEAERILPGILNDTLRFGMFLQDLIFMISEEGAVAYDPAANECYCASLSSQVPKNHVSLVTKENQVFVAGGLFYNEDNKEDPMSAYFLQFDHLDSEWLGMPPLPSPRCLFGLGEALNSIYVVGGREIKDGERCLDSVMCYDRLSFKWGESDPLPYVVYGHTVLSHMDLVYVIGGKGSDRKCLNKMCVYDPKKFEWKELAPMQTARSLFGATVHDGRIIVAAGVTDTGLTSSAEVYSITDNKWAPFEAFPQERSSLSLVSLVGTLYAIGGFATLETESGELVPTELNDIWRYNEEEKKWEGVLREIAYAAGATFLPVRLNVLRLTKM
Briefly: protein array.

In experiment [2] the target is T2, membrane palmitoylated protein 2, transcript variant 3 (human, UniProt Q14168 1-576).
T2 construct: on protein array; also called MPP2
T2 sequence: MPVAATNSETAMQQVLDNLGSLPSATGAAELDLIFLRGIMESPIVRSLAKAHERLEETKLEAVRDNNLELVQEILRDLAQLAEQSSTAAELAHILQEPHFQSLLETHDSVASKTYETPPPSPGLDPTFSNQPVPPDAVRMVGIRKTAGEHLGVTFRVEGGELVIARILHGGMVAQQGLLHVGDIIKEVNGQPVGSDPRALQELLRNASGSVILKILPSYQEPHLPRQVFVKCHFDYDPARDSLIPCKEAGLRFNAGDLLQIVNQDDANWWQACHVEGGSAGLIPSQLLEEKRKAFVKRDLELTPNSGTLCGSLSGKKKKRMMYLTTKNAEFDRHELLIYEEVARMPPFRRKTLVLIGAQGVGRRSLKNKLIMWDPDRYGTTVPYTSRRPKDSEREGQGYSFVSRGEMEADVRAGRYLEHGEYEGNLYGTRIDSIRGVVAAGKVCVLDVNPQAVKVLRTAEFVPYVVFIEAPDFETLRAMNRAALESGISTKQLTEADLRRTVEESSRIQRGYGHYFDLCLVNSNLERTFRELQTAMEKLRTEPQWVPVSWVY
Briefly: protein array.

Experiment [3] concerns the target T3, proliferating cell nuclear antigen, transcript variant 1 (human, UniProt P12004 1-261).
T3 construct: on protein array; also called PCNA
Description: protein array.

The target in experiment [4] is T4, zinc finger DHHC-type containing 1, transcript variant 1 (human, UniProt Q8WTX9 1-485).
T4 construct: HuProt array protein, full-length recombinant from yeast; also called ZDHHC1
T4 sequence: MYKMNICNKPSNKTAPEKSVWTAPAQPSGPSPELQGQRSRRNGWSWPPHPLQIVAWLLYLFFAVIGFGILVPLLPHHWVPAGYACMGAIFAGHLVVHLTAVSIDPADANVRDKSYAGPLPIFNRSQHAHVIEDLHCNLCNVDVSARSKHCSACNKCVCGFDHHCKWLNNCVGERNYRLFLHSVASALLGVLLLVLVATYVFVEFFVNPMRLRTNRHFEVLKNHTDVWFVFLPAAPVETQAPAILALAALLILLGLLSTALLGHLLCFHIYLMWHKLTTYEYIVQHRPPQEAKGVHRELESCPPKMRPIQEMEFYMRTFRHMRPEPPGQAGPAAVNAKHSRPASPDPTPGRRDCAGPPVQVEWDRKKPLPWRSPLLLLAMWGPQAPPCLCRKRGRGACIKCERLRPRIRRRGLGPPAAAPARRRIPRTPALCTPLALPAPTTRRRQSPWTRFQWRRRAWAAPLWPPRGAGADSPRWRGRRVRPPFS

Experiment [5] concerns the target T5, influenza virus NS1A binding protein (human, UniProt Q9Y6Y0 1-642).
T5 construct: on protein array; also called IVNS1ABP
T5 sequence: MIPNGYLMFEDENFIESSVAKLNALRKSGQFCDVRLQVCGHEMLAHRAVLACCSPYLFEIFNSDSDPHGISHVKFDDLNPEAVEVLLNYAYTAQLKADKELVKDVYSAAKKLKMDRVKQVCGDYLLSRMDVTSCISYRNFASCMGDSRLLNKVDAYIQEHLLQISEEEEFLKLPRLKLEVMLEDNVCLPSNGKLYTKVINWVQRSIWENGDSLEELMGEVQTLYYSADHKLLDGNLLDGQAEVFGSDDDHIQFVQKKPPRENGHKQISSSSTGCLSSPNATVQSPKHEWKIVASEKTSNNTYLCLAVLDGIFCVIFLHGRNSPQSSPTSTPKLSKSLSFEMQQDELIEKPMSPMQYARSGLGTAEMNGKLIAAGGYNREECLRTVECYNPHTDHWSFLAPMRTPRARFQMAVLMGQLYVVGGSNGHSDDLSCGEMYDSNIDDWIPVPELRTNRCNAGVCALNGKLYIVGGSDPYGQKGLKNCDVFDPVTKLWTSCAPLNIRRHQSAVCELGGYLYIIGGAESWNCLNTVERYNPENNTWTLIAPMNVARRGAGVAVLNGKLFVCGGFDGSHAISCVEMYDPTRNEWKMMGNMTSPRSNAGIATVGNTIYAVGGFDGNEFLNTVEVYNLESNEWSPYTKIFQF
Briefly: protein array.

Experiment [6] deals with T6, BAF chromatin remodeling complex subunit BCL7C, transcript variant 2 (human, UniProt Q8WUZ0 1-217).
T6 construct: on protein array
Description: protein array.

For experiment [7], the target named is T7, G antigen 2A (human, UniProt Q6NT46 1-116).
T7 construct: on protein array; also called GAGE2A
T7 sequence: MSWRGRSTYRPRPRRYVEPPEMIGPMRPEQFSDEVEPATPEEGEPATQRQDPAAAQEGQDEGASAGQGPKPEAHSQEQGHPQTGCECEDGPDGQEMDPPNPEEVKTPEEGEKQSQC
Briefly: protein array.

The target of experiment [8] is T8, UTP6 small subunit processome component (human, UniProt Q9NYH9 1-597).
T8 construct: on protein array
T8 sequence: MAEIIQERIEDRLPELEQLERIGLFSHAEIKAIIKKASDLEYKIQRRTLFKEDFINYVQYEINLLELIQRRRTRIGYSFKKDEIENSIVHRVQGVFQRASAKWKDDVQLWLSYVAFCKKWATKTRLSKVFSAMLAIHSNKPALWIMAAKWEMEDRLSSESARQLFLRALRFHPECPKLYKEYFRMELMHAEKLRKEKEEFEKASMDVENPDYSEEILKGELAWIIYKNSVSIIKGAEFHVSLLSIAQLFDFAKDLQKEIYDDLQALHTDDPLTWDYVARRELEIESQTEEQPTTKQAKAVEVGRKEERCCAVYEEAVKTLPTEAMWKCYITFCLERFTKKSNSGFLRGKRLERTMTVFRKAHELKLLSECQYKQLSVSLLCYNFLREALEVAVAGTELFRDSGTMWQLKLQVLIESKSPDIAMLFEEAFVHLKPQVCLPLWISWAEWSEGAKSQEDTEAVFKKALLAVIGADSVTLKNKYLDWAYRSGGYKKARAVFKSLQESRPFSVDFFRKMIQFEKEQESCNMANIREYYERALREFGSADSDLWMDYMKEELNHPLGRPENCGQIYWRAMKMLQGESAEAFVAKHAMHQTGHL
Description: protein array.

Experiment [9] deals with T9, retinoid X receptor alpha, transcript variant 1 (human, UniProt P19793 1-462).
T9 construct: HuProt array protein, full-length recombinant from yeast; also called RXRA
T9 sequence: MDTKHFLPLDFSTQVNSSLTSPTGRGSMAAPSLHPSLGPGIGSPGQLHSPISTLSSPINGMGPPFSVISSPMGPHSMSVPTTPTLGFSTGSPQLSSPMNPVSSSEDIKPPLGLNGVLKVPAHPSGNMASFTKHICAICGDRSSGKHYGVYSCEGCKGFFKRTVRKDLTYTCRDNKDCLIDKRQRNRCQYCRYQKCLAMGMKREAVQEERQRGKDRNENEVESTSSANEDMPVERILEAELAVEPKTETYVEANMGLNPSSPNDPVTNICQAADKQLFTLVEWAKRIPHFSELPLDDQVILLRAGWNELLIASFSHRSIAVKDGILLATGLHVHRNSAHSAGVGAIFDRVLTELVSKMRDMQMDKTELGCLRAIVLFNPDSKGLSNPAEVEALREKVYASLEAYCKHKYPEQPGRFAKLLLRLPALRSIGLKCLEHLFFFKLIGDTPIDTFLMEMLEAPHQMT

Experiment [10] deals with T10, SNAP associated protein, transcript variant 1 (human, UniProt O95295 2-136).
T10 construct: HuProt array protein, full-length recombinant from yeast; also called SNAPIN
T10 sequence: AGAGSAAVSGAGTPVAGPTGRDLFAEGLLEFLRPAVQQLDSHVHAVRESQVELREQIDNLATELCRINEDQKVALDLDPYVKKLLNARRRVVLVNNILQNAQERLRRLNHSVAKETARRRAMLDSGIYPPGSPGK

T3 sequence (P12004 whole entry, change not shown): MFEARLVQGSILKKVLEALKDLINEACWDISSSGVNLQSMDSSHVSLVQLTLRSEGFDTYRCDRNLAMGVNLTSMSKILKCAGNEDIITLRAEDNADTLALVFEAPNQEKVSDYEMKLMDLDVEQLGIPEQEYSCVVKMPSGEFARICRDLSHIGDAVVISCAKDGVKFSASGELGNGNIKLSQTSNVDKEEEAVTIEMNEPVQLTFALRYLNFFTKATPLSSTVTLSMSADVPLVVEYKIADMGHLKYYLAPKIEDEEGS

B1: TBRE1012 (antibody, V domains shown)
VH: QVQLQESGPGLVKPTQTLSLTCTVSGGSISSGSYYWNWIRQPAGKGLEWIGNIYTSGNTDYNPSLKSRVTISLDTSKNQVSLNLTSVTAADTAVYYCATTPSSSWYWYFDPWGQGTLVTVSS
VL: DLQMTQSPSSLSASIGDRVTITCRASQSISTYFNWYQQKPGKAPKLLIYAASSLQSGVPSRFSGSGSGTDFTLTITSLQPEDFATYYCQQTYSNPWTFGQGTKVDFKR
notes: VH/VL only
Consider B1, for which the binding result in experiment [1] and in experiment [2] was “binds” each time.

B2: TTHY1002 (antibody, V domains shown)
VH: EVQVVESGGGLGQPGGSLRLSCAASGFTFSSYSMNWVRQAPGKGLEWVSYISSSSSTKYYADSVKGRFTISRDNAKKSLYLQMNSLRDEDTAVYYCASPVRPWGQGTLVTVSS
VL: EIVMTQSPATLSVSPGERATLSCRASQSVSSNLAWYQQKPGQAPRLLIYGASTRATGIPARFSGSGSGTEFTLTISSLQSEDFAIYYCQQYNSWPAFGGGTKVEIK
notes: VH/VL tied via antigen in summary, not by name in this stretch
With B2, in [3], the binding result was “binds”.

B3: TBLA1003 (antibody, V domains shown)
VH: EVQLVESGGGLIQPGRSLRLSCAASGFTFEDYAMHWVRQAPGKGLEWVSGISWNSGNIGYADSVKGRFTISRDNAKNSLYLQMHSLRPEDTALYYCAKDINFFGLGTGGGAMDVWGQGTTVTVSS
VL: DIQMTQSPSYVSASVGDRVTITCRASQGIDVWLAWYQQKPGKAPKLLIYTASSLQSGVPSRFSGSGGGTEFTLTISSLQPEDFATYYCQQSNSFPGTFGPGTKVDVKR
notes: detected with anti-human IgG Fc
For B3, the binding result in experiment [4] was “binds”.

B4: TTHY1003 (antibody, V domains shown)
VH: QVQLVQSGAEMKKPGTSVKVSCRTSGYIFTGSFMHWVRQAPAQGLEWMGWINPKTGATYYTEKFKGRVTLTRDTSINTAYMEMTSLRSDDTAVYYCARGFCDLPACYPVPQYNWFDPWGQGTLVTVSS
VL: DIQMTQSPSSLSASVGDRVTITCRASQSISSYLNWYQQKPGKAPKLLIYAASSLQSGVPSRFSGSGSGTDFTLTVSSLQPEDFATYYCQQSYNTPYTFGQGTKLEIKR
notes: as for B2
As for B4, the binding result in experiment [5] and in experiment [6] was “binds” in each case.

B5: TTES1012 (antibody, V domains shown)
VH: EVQLVESGGGLVQPGGSLRLSCAASGFTFSSYWMTWVRQAPGKGLEWVANIKQDGSEKYYVDSVKGRFTISRDNSKNSLYLQMNSLRAEDTAVYYCARAGYDLFGWFDPWGQGTLVTVSS
VL: SYELTQPPSVSVSPGQTARITCSGDALPKQYAYWYQQKPGQAPVLVIYKDSERPSGIPERFSGSSSGTTVTLTISGVQAEDEADYYCQSADSSGTYVFGTGTKVTVLG
notes: as for B2
Take B5: the binding result in experiment [7] is on record as “binds”.

B6: TUCE1005 (antibody, V domains shown)
VH: QVQLQESGPGLVKPSETLSLTCTVSGGSISSYYWSWIRQPAGKGLEWIGRIYTSGSTNYNPSLKSRVTMSVDTSKNQFSLKMSSVTAADTAVYYCARGELLFDHWGQGTLVTVSS
VL: not shown
notes: as for B2
With B6, the binding result in experiment [8] is on record as “binds”.

B7: TBLA1004 (antibody, V domains shown)
VH: QITLKESGPTLVKPTQTLTLTCTFSGFSLSTSGVGVGWIRQPPGKALEWLALIYWDDDKRYSPSLKSRLTITKDTSKNQVVLTMTNMDPVDTATYYCAHRAIVGLFDYWGQGTLVTVSS
VL: PSVLTQPPSASGTPGQRVTISCSGSSSNIGSNYVYWYQQLPGTAPKFLIYRNNQRPSGVPDRFSGSKSGTSASLAISGLRSEDEADYYCAAWEDSLSGPVFGGGTKLTVL
notes: as for B3
With B7, in experiment [9], the binding result is listed as “binds”.

B8: TBLA1006 (antibody, V domains shown)
VH: VQLVDSGGGLVQPGRSLRLSCAASGFVFDDYAMHWVRQVPGKGLEWVSGISWNSVSIGYADSVKGRFTISRDNAKNSLYLQMNSLRPEDAALYYCVKSFSAEYYYYYYGMDVWGQGTTVTVSS
VL: LYVLTQPPSVSVAPGTTAWISCGGNNIGIKSVHWYQQKPGQAPLLVISYDSDRPSVIPERFSVSNSGNTVTLTISRVEAGDEADYYCQVWDNGHSHWVFGGGTKLTVLG
notes: as for B3
Take B8: the binding result in experiment [10] is listed as “binds”.
